Data from the supplement of paper PMC5998384.

Tests used:
HeLa Kyoto [1] = assay: thermal stability score vs G1/S (z-score of summed log2 fold changes over temperatures); higher = more thermally stable than in G1/S
HeLa Kyoto [2] = assay: melting temperature (median over replicates), in situ; higher = more thermally stable
HeLa Kyoto [3] = assay: solubility in G1/S (NP-40 vs SDS abundance) (log2 ratio); higher = more soluble; settings: cell cycle stage: G1/S
HeLa Kyoto [4] = assay: solubility change mitosis vs G1/S (difference of NP-40 vs SDS log2 ratios) (log2 ratio difference); higher = more soluble in mitosis
[5] = cell cycle stage: early G1 (4.5 h after nocodazole release)
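Throughout, for melting temperature (median over replicates), in situ: HeLa Kyoto cells synchronized by double thymidine or nocodazole block, proteins quantified by TMT10plex mass spectrometry, three independent biological replicates.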
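Throughout, for solubility change mitosis vs G1/S (difference of NP-40 vs SDS log2 ratios): synchronized HeLa Kyoto cells (double thymidine block for G1/S, nocodazole release for mitosis), protein amounts in NP-40 versus SDS lysates quantified by mass spectrometry, three biological replicates.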
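Throughout, for solubility in G1/S (NP-40 vs SDS abundance): HeLa Kyoto cells arrested at G1/S by double thymidine block, proteins quantified by TMT10plex mass spectrometry in mild NP-40 versus SDS extracts, three biological replicates.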
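Throughout, for thermal stability score vs G1/S (z-score of summed log2 fold changes over temperatures): synchronized HeLa Kyoto cells, proteins quantified by TMT10plex mass spectrometry, three biological replicates, mitosis taken 0.5 h after nocodazole release, G1/S directly after double thymidine block.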

Sequence	thermal stability score (HeLa Kyoto [1]; [5])	thermal stability score (HeLa Kyoto [1]; cell cycle stage: mitosis)	melting temperature (HeLa Kyoto [2]; cell cycle stage: G1/S) [°C]	melting temperature (HeLa Kyoto [2]; cell cycle stage: mitosis) [°C]	solubility in G1/S (log2) (HeLa Kyoto [3])	solubility change mitosis (log2) (HeLa Kyoto [4])
MAAAAGMLLLGLLQAGGSVLGQAMEKVTGGNLLSMLLIACAFTLSLVYLIRLAAGHLVQLPAGVKSPPYIFSPIPFLGHAIAFGKSPIEFLENAYEKYGPVFSFTMVGKTFTYLLGSDAAALLFNSKNEDLNAEDVYSRLTTPVFGKGVAYDVPNPVFLEQKKMLKSGLNIAHFKQHVSIIEKETKEYFESWGESGEKNVFEALSELIILTASHCLHGKEIRSQLNEKVAQLYADLDGGFSHAAWLLPGWLPLPSFRRRDRAHREIKDIFYKAIQKRRQSQEKIDDILQTLLDATYKDGRPLTDDEVAGMLIGLLLAGQHTSSTTSAWMGFFLARDKTLQKKCYLEQKTVCGENLPPLTYDQLKDLNLLDRCIKETLRLRPPIMIMMRMARTPQTVAGYTIPPGHQVCVSPTVNQRLKDSWVERLDFNPDRYLQDNPASGEKFAYVPFGAGRHRCIGENFAYVQIKTIWSTMLRLYEFDLIDGYFPTVNYTTMIHTPENPVIRYKRRSK [CYP51A1]	2.55	3.17	48.4	50	-0.38	0.0784
MAAAAVAAAAAAAAAASLQVLEMESMETAAAGSAGLAAEVRGSGTVDFGPGPGISAMEASGGDPGPEAEDFECSSHCSELSWRQNEQRRQGLFCDITLCFGGAGGREFRAHRSVLAAATEYFTPLLSGQFSESRSGRVEMRKWSSEPGPEPDTVEAVIEYMYTGRIRVSTGSVHEVLELADRFLLIRLKEFCGEFLKKKLHLSNCVAIHSLAHMYTLSQLALKAADMIRRNFHKVIQDEEFYTLPFHLIRDWLSDLEITVDSEEVLFETVLKWVQRNAEERERYFEELFKLLRLSQMKPTYLTRHVKPERLVANNEVCVKLVADAVERHALRAENIQSGTCQHPTSHVSLLPRYGQNMDVIMVIGGVSEGGDYLSECVGYFVDEDRWVNLPHIHNHLDGHAVAVTESYVYVAGSMEPGFAKTVERYNPNLNTWEHVCSLMTRKHSFGLTEVKGKLYSIGGHGNFSPGFKDVTVYNPELDKWHNLESAPKILRDVKALAIEDRFVYIAARTPVDRDTEDGLKAVITCYDTETRQWQDVESLPLIDNYCFFQMSVVNSNFYQTASCCPKSYCLENEEAVRKIASQVSDEILESLPPEVLSIEGAAICYYKDDVFIIGGWKNSDDIDKQYRKEAYRYCAERKRWMLLPPMPQPRCRATACHVRIPYRYLHGTQRYPMPQNLMWQKDRIRQMQEIHRHALNMRRVPSSQIEC [KLHL11]	0.384	0.29	51.8	50.7	-0.226	-0.089
MAAAEPSPRRVGFVGAGRMAGAIAQGLIRAGKVEAQHILASAPTDRNLCHFQALGCRTTHSNQEVLQSCLLVIFATKPHVLPAVLAEVAPVVTTEHILVSVAAGVSLSTLEELLPPNTRVLRVLPNLPCVVQEGAIVMARGRHVGSSETKLLQHLLEACGRCEEVPEAYVDIHTGLSGSGVAFVCAFSEALAEGAVKMGMPSSLAHRIAAQTLLGTAKMLLHEGQHPAQLRSDVCTPGGTTIYGLHALEQGGLRAATMSAVEAATCRAKELSRK [PYCRL]	-1.28	-1.85	53.5	55.3	0.155	0.0528
MAAAGAAATHLEVARGKRAALFFAAVAIVLGLPLWWKTTETYRASLPYSQISGLNALQLRLMVPVTVVFTRESVPLDDQEKLPFTVVHEREIPLKYKMKIKCRFQKAYRRALDHEEEALSSGSVQEAEAMLDEPQEQAEGSLTVYVISEHSSLLPQDMMSYIGPKRTAVVRGIMHREAFNIIGRRIVQVAQAMSLTEDVLAAALADHLPEDKWSAEKRRPLKSSLGYEITFSLLNPDPKSHDVYWDIEGAVRRYVQPFLNALGAAGNFSVDSQILYYAMLGVNPRFDSASSSYYLDMHSLPHVINPVESRLGSSAASLYPVLNFLLYVPELAHSPLYIQDKDGAPVATNAFHSPRWGGIMVYNVDSKTYNASVLPVRVEVDMVRVMEVFLAQLRLLFGIAQPQLPPKCLLSGPTSEGLMTWELDRLLWARSVENLATATTTLTSLAQLLGKISNIVIKDDVASEVYKAVAAVQKSAEELASGHLASAFVASQEAVTSSELAFFDPSLLHLLYFPDDQKFAIYIPLFLPMAVPILLSLVKIFLETRKSWRKPEKTD [PIGS]	2.4	4.4	52.6	53.1	0.0826	-0.13
MAAAKVALTKRADPAELRTIFLKYASIEKNGEFFMSPNDFVTRYLNIFGESQPNPKTVELLSGVVDQTKDGLISFQEFVAFESVLCAPDALFMVAFQLFDKAGKGEVTFEDVKQVFGQTTIHQHIPFNWDSEFVQLHFGKERKRHLTYAEFTQFLLEIQLEHAKQAFVQRDNARTGRVTAIDFRDIMVTIRPHVLTPFVEECLVAAAGGTTSHQVSFSYFNGFNSLLNNMELIRKIYSTLAGTRKDVEVTKEEFVLAAQKFGQVTPMEVDILFQLADLYEPRGRMTLADIERIAPLEEGTLPFNLAEAQRQKASGDSARPVLLQVAESAYRFGLGSVAGAVGATAVYPIDLVKTRMQNQRSTGSFVGELMYKNSFDCFKKVLRYEGFFGLYRGLLPQLLGVAPEKAIKLTVNDFVRDKFMHKDGSVPLAAEILAGGCAGGSQVIFTNPLEIVKIRLQVAGEITTGPRVSALSVVRDLGFFGIYKGAKACFLRDIPFSAIYFPCYAHVKASFANEDGQVSPGSLLLAGAIAGMPAASLVTPADVIKTRLQVAARAGQTTYSGVIDCFRKILREEGPKALWKGAGARVFRSSPQFGVTLLTYELLQRWFYIDFGGVKPMGSEPVPKSRINLPAPNPDHVGGYKLAVATFAGIENKFGLYLPLFKPSVSTSKAIGGGP [SLC25A13]	-1.62	-1.29	55.3	55.3	0.0358	-0.142
MAAALGASGGAGAGDDDFDQFDKPGAERSWRRRAADEDWDSELEDDLLGEDLLSGKKNQSDLSDEELNDDLLQSDNEDEENFSSQGVTISLNATSGMVTSFELSDNTNDQSGEQESEYEQEQGEDELVYHKSDGSELYTQEYPEEGQYEGHEAELTEDQIEYVEEPEEEQLYTDEVLDIEINEPLDEFTGGMETLELQKDIKEESDEEEEDDEESGRLRFKTERKEGTIIRLSDVTRERRNIPETLELSAEAKAALLEFEERERQHKQGRYSSRRGGRRGGPLMCRGVGDQRRESTERGRMKDHRPALLPTQPPVVPQAPPPPPPPPQQQPIRSLFQPQPLQPLLPVQHPHHPSPPQGMHMPPQLETPRMMMTPPPVTPQQPKNIHINPHFKGTVVTPVQVPLLPVPSQPRPAVGPQRFPGPPEFPQHTPGPVPNSFSQPPRLPLQDQWRAPPPPQDRDPFFLGVSGEPRFPSHLFLEQRSPPPPPPPPTLLNSSHPVPTQSPLPFTQPGPAFNQQGQQPVFPRERPVRPALQPPGPVGILHFSQPGSATTRPFIPPRQPFLPGPGQPFLPTHTQPNLQGPLHPPLPPPHQPQPQQPQQQPPPQHQPPHQPPHQPPPQHQPPPQHPPQHPPQHQHHHHHHHLSVPPPPLMPMSQPQFRPHVQTAQPQASSSRMQCPQRQGLRHNTTSQNVSKRPMQQMQPTAPRNSNLRELPIAPSHVIEMSSSRCSATPSAQVKPIVSASPPSRAVAGSRSSQGKTEVKVKPASPVAQPKEEAKTETEFPDEDEETRLYRLKIEEQKRLREEILKQKELRRQQQAGARKKELLERLAQQQQQLYAPPPPAEQEEQALSPSPTNGNPLLPFPGAQVRQNVKNRLLVKNQDVSISNVQPKTSNFVPSSANMQYQGQQMKALKHLRQTRTVPQSQTQPLHKVLPIKPADVEEPAVPQTPRVASIQGRPQDTKPGVKRTVTHRTNSGGGDGPHISSKVRVIKLSGGGGESDGFFHPEGQPQRLPQPPEVGPQPARKVTLTRGGLQQPPHLPAGPHAHSPVPPGIKSIQGIHPAKKAIMHGRGRGVAGPMGRGRLMPNKQNLRVVECKPQPCVVSVEGLSSSTTDAQLKSLLMSVGPIQSLQMLPQQRKAIAKFKEPAHALAFQQKFHRHMIDLSHINVALIVE [RBM33]	0.706	2.36	48.8	50.8	-0.022	-0.145
MAAAMPLALLVLLLLGPGGWCLAEPPRDSLREELVITPLPSGDVAATFQFRTRWDSELQREGVSHYRLFPKALGQLISKYSLRELHLSFTQGFWRTRYWGPPFLQAPSGAELWVWFQDTVTDVDKSWKELSNVLSGIFCASLNFIDSTNTVTPTASFKPLGLANDTDHYFLRYAVLPREVVCTENLTPWKKLLPCSSKAGLSVLLKADRLFHTSYHSQAVHIRPVCRNARCTSISWELRQTLSVVFDAFITGQGKKDWSLFRMFSRTLTEPCPLASESRVYVDITTYNQDNETLEVHPPPTTTYQDVILGTRKTYAIYDLLDTAMINNSRNLNIQLKWKRPPENEAPPVPFLHAQRYVSGYGLQKGELSTLLYNTHPYRAFPVLLLDTVPWYLRLYVHTLTITSKGKENKPSYIHYQPAQDRLQPHLLEMLIQLPANSVTKVSIQFERALLKWTEYTPDPNHGFYVSPSVLSALVPSMVAAKPVDWEESPLFNSLFPVSDGSNYFVRLYTEPLLVNLPTPDFSMPYNVICLTCTVVAVCYGSFYNLLTRTFHIEEPRTGGLAKRLANLIRRARGVPPL [PIGT]	1.75	1.86	53.8	52.5	0.0123	-0.141
MAAAPLKVCIVGSGNWGSAVAKIIGNNVKKLQKFASTVKMWVFEETVNGRKLTDIINNDHENVKYLPGHKLPENVVAMSNLSEAVQDADLLVFVIPHQFIHRICDEITGRVPKKALGITLIKGIDEGPEGLKLISDIIREKMGIDISVLMGANIANEVAAEKFCETTIGSKVMENGLLFKELLQTPNFRITVVDDADTVELCGALKNIVAVGAGFCDGLRCGDNTKAAVIRLGLMEMIAFARIFCKGQVSTATFLESCGVADLITTCYGGRNRRVAEAFARTGKTIEELEKEMLNGQKLQGPQTSAEVYRILKQKGLLDKFPLFTAVYQICYESRPVQEMLSCLQSHPEHT [GPD1L]	0.464	-0.000421	53.2	53	0.144	-0.126
MAAAPPLRDRLSFLHRLPILLKGTSDDDVPCPGYLFEEIAKISHESPGSSQCLLEYLLSRLHSSSGHGKLKVLKILLYLCSHGSSFFLLILKRNSAFIQEAAAFAGPPDPLHGNSLYQKVRAAAQDLGSTLFSDTVLPLAPSQPLGTPPATGMGSQARPHSTLQGFGYSKEHGRTAVRHQPGQAGGGWDELDSGPSSQNSSQNSDLSRVSDSGSHSGSDSHSGASREPGDLAERVEVVALSDCQQELSLVRTVTRGPRAFLSREEAQHFIKACGLLNCEAVLQLLTCHLRGTSECTQLRALCAIASLGSSDLLPQEHILLRTRPWLQELSMGSPGPVTNKATKILRHFEASCGQLSPARGTSAEPGPTAALPGPSDLLTDAVPLPGSQVFLQPLSSTPVSSRSPAPSSGMPSSPVPTPPPDASPIPAPGDPSEAEARLAESRRWRPERIPGGTDSPKRGPSSCAWSRDSLFAGMELVACPRLVGAGAAAGESCPDAPRAPQTSSQRTAAKEPPGSEPSAFAFLNA [ENTHD2]	-0.323	-0.0735	53.4	50.6	0.305	0.0532
MAAARATTPADGEEPAPEAEALAAARERSSRFLSGLELVKQGAEARVFRGRFQGRAAVIKHRFPKGYRHPALEARLGRRRTVQEARALLRCRRAGISAPVVFFVDYASNCLYMEEIEGSVTVRDYIQSTMETEKTPQGLSNLAKTIGQVLARMHDEDLIHGDLTTSNMLLKPPLEQLNIVLIDFGLSFISALPEDKGVDLYVLEKAFLSTHPNTETVFEAFLKSYSTSSKKARPVLKKLDEVRLRGRKRSMVG [TP53RK]	0.0261	-0.818	55.1	53	0.367	-0.151
